pKd: −log10 of the molar value. Like-named read-outs stand apart in the source and are kept apart here.
What was measured:
EpCAM ECD (Homo sapiens) [1] = target: EpCAM ECD (Homo sapiens) (UniProt P16422); details: cited from earlier work
EpCAM ECD (Homo sapiens) [2] = target: EpCAM ECD (Homo sapiens) (UniProt P16422); details: cited from earlier work; remark: listed apart in the source
[3] = target: mCherry-EpFL (N-terminal fusion of mCherry to full-length EpCAM) (UniProt P16422); assay: FRET or BRET; FLIM-FRET, donor sfGFP and acceptor mCherry both N-terminal on EpFL, co-transfected in the same cell (cis; GFPEX/CherryEX), equimolar plasmids; HEK 293 T and HCT8 #L13 cells, fixed; whole cell membrane region

EpCAM cis-dimer ECD (from UniProt P16422)
pKd (EpCAM ECD (Homo sapiens) [1]): 8.00

EpCAM trans-tetramer (dimer-dimer) ECD (from UniProt P16422)
pKd (EpCAM ECD (Homo sapiens) [2]): 5.00

sfGFP-EpFL (N-terminal fusion of sfGFP to full-length EpCAM) (from UniProt P16422 24-314) (receptor)
average donor fluorescence lifetime [3]: 1.6 ns

Source: article PMC6125409
